From US20150232546A1 (THROMBOGENICS, published 2015)
Positions count from the first letter of the chain named. Ends that are not written are not given here. * marks the point of attachment. Biotin = O=C1N[C@H]2[C@H](CS[C@H]2CCCCC(=O)*)N1

B1: Humanized 16B1 anti-PDGF-C antibody (antibody, V domains shown)
VH: EVQLLESGGGLVQPGGSLRLSCAASGFTFSNYGMSWVRQTPGKGLEWVATIGSGGSYTYYPDSVKGRFTISRDNAKNTLYLQMNSLRAEDTAVYYCARQAPLWDYSDYWGQGTLLTVSS
VL: DVVMTQSPLSLPVTLGQPASISCRSNQSIVHSNGDTYLEWYLQKPGQSPRLLIYKVSNRFSGVPDRFSGSGSGTDFTLKISRVEAEDVGVYYCFQGSHVPPTFGQGTKLEIK
notes: also called humanized mAb 16B1
B2: anti-PDGF-C antibody 5A2 (antibody, IgG2b, V domains shown)
VH: EVQLVESGGDLVKPGGSLKLSCAASGFTFSNYGMSWVRQTPDKRLEWVATIGSGGHYTYYPDSVKGRFTISRDSAKSTLYLQMSSLKSEDTAIYYCARQAPLWDCSDYWGQGTTLTVSS
VL: B1 VL with V3L, S7T, T14S, Q17D, P18Q, R50K, V88L, Q105G
notes: Mouse monoclonal from hybridoma, IgG2b, kappa; also called mAb 5A2; hybridoma LMBP 9484CB
B3: anti-PDGF-C antibody 5H7 (antibody, IgG1, V domains shown)
VH: EVQLVESGGDLVKPGGSLKLSCAASGFTFSSYGMSWVRQTPDKRLEWVATIGYGGSFTYYPDSMKGRFTISRDNAKNTLFLQMSSLKSEDTAIYYCVRQAPLWDYFDYWGQGTTLTVSS
VL: DVLMTQTPLSLPVSLGDQASISCRSSQTIVHSDGTTYLEWYLQKAGQSPKLLIYKVSNRFSGVPDRFSGSGSGTDFTLKISRVEAEDLGVYYCFQGSHVPPTFGGGTKLEIK
notes: Mouse monoclonal from hybridoma, IgG1, kappa; also called mAb 5H7; hybridoma LMBP 9485CB
B4: anti-PDGF-C antibody 29H1 (antibody, IgG1, V domains shown)
VH: B2 VH with K87R, E89D
VL: B3 VL with S26N, T28S, D33N, T35D, A45P, K50N
notes: Mouse monoclonal from hybridoma, IgG1, kappa; also called mAb 29H1; hybridoma LMBP 9487CB
B5: anti-PDGF-C antibody 16B1 (antibody, IgG1, V domains shown)
VH: B2 VH with H56S, S77N, I93M, C105Y
VL: B3 VL with S26N, T28S, D33N, T35D, A45P
notes: Mouse monoclonal from hybridoma, IgG1, kappa; VH same as 2D3, VL same as 5A2; also called mAb 16B1; hybridoma LMBP 9486CB
B6: anti-PDGF-C antibody 2D3 (antibody, IgG1, V domains shown)
VH: B2 VH with H56S, S77N, I93M, C105Y
VL: B3 VL with S26N, D33N, T35D, A45P, K50N
notes: Mouse monoclonal from hybridoma, IgG1, kappa; also called mAb 2D3; hybridoma LMBP 9483CB
B7: Humanized 5H7 anti-PDGF-C antibody (antibody, V domains shown)
VH: B1 VH with N31S, S53Y, Y57F, V64M, S106F
VL: B1 VL with N26S, S28T, N33D, D35T
notes: also called humanized mAb 5H7
B8: recombinant human PDGFRα Fc chimera (6765-PR from R&D Systems) (Fc fusion, not shown: a dimerising Fc or GST)
chain: QLSLPSILPNENEKVVQLNSSFSLRCFGESEVSWQYPMSEEESSDVEIRNEENNSGLFVTVLEVSSASAAHTGLYTCYYNHTQTEENELEGRHIYIYVPDPDVAFVPLGMTDYLVIVEDDDSAIIPCRTTDPETPVTLHNSEGVVPASYDSRQGFNGTFTVGPYICEATVKGKKFQTIPFNVYALKATSELDLEMEALKTVYKSGETIVVTCAVFNNEVVDLQWTYPGEVKGKGITMLEEIKVPSIKLVYTLTVPEATVKDSGDYECAARQATREVKEMKKVTISVHEKGFIEIKPTFSQLEAVNLHEVKHFVVEVRAYPPPRISWLKNNLTLIENLTEITTDVEKIQEIRYRSKLKLIRAKEEDSGHYTIVAQNEDAVKSYTFELLTQVPSSILDLVDDHHGSTGGQTVRCTAEGTPLPDIEWMICKDIKKCNNETSWTILANNVSNIITEIHSRDRSTVEGRVTFAKVEETIAVRCLAKNLLGAENRELKLVAPTLRSEIEGRMD

These binders were tested against T1, Recombinant human PDGF-C from R&D Systems (1687-CC/CF; Val235-Gly345) (human, UniProt Q9NRA1 235-345) (assay: cell-based or functional assay).
T1 sequence (Q9NRA1 235-345 limits assumed, form in doubt): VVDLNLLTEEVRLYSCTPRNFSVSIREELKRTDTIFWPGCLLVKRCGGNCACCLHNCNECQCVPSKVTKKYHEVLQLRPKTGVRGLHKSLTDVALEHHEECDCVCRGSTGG

Binder	IC50 value (nM), PathHunter PDGFRα assay [nM]
B1	4.97

Biological target: T2, human PDGF-C peptide no. 27 (human)
T2 peptide: Biotin-EPGFCIHYNIVMPQF
Experiment: peptide ELISA, signal to background >3
Experimental: (§1) The indicated peptides where synthesized in an N-terminally biotinylated form and coated onto a neutravidin plate (Thermo Scientific, Cat. 15127) at a concentration of 10 μg/mL. […] Each antibody was tested at least twice, and up to 4 times. A “+” in the table indicate that a signal to background >3 was found and confirmed at least once. The background signal was measured in the absence of peptide using both the primary and the secondary antibodies.

Binder	binding result
B2	binds

Biological target: T3, human PDGF-C peptide no. 9 (human)
T3 peptide: Biotin-FPHTYPRNTVLVWRL
Experiment: peptide ELISA, signal to background >3
Experimental: as §1

Binder	binding result
B2	binds

Biological target: T4, human PDGF-C peptide no. 58 (human)
T4 peptide: Biotin-VLQLRPKTGVRGLHK
Experiment: peptide ELISA, signal to background >3
Experimental: as §1

Binder	binding result
B2	binds
B3	binds
B4	binds

Biological target: T1, Recombinant human PDGF-C from R&D …
Experiment: cell-based or functional assay
Remark: another data set of the same source

Binder	% PDGF-Rα activation by PDGF-C allowed at 1.85 µg/mL antibody (100% = no antibody) [%]
B2	30
B3	32
B5	38
B4	23
B6	49

Each binder was assayed against T1, Recombinant human PDGF-C from R&D … (assay: SPR (Biacore 3000), antibody amine-coupled to CM5 chip, PDGF-C injected, 1:1 fit).
Experimental: (§2) The different antibodies were each separately coated to a CM5 chip at a density of 1680 RU using standard amine chemistry. Different concentrations (200, 175, 150, 125, 100, 75, 50, 25, 12.5, 6.25, 3.125 & 0 nM) of PDGF-C (R&D Systems, Cat. 1687-CC/CF) were injected over the coated antibody for 5 min, then buffer was flowed for 10 min to monitor the dissociation of the captured antigen. The surface was regeneration between each run with a single injection of glycine-HCl, pH 2.5. Affinities were obtained by analyzing the sensorgrams with the help of the BIAevaluation 4.1 software assuming a 1:1 interaction. The experiment was performed with a Biacore 3000 instrument.

Binder	Kd [nM]
B2	5
B3	2.5
B5	1.2
B4	1.5
B6	1.5

What follows are binders tested against T1, Recombinant human PDGF-C from R&D … (assay: SPR as in Example 3).
Experimental: as §2
The affinity of the above-listed exemplary humanized anti-PDGF-C antibodies for PDGF-C was analysed (as in Example 3) and the humanized antibodies were subsequently assessed in the in vitro bioassay described in Example 4. A technical problem with the (preparation of) humanized antibody 5H7 may explain why this antibody is apparently not inhibiting activation of PDGFR-α although it is still binding with high affinity to PDGF-C; this is under further investigation.

Binder	Kd [nM]
B7	2.5
B1	0.8

Biological target: T1, Recombinant human PDGF-C from R&D …
Experiment: cell-based or functional assay
Remark: another data set of the same source

Binder	% PDGFRα activation in the PathHunter PDGFRα assay at 5.56 µg/ml antibody with PDGF-CC at EC80 (no Ab with PDGF-CC = 100, no Ab without PDGF-CC = 24) [%]	% PDGFRα activation in the PathHunter PDGFRα assay at 16.67 µg/ml antibody with PDGF-CC at EC80 (no Ab with PDGF-CC = 100, no Ab without PDGF-CC = 24) [%]	% PDGFRα activation in the PathHunter PDGFRα assay at 50 µg/ml antibody with PDGF-CC at EC80 (no Ab with PDGF-CC = 100, no Ab without PDGF-CC = 24) [%]
B2	20	17	18
B3	24	22	22
B5	24	23	20
B4	22	21	22
B6	32	24	23

Biological target: T1, Recombinant human PDGF-C from R&D …
Experiment: cell-based or functional assay
Remark: another data set of the same source

Binder	IC50 value (nM), PathHunter PDGFRα assay [nM]
B8	0.65
B2	3.36
B3	5.57
B5	8.38
B6	7.47
